Molecular target: Human E1 (ubiquitin-activating enzyme) (UniProt P22314)
UniProt P22314, sequence (P22314 whole entry): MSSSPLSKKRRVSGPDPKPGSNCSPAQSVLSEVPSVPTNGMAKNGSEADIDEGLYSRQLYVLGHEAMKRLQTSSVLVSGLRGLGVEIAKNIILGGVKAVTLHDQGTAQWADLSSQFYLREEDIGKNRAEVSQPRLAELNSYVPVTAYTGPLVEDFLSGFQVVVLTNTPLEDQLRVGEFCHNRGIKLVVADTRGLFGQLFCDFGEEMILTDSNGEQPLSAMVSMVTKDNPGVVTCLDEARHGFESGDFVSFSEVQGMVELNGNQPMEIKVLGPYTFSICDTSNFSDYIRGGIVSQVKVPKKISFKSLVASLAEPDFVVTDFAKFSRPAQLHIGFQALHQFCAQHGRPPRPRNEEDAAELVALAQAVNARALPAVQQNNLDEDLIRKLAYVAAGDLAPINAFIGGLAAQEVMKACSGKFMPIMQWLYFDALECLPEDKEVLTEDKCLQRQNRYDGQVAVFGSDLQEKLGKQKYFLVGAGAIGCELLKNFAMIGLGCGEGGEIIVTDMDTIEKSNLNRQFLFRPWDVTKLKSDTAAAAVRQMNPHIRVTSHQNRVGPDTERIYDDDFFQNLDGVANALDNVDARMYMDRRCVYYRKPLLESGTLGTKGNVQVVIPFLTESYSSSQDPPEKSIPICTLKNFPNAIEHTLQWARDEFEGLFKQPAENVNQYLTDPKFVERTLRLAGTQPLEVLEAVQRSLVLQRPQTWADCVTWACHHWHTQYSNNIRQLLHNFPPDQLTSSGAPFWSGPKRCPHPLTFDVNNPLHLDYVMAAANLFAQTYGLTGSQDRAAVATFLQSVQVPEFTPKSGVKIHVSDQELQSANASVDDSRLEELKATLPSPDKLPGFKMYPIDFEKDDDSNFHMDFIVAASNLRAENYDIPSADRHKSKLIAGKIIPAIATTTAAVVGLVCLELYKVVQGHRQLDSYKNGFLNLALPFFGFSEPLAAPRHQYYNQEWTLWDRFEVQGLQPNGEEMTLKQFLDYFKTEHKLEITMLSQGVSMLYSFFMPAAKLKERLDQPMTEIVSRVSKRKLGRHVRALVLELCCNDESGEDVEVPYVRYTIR

Q: FLJ11011v2 was tested. Which “ubiquitinylation reaction, anti-Ub western blot” value did it give?
A: Its value is “FLJ11011v2 is efficiently ubiquitinylated in this assay”.

Reference: patent US20060070134
